Assay results published in patent US7109015B2, “Removal of N-terminal methionine from proteins by engineered methionine aminopeptidase” (Academia Sinica, priority 2004, dated 2006).
Where “and” joins values, the source holds several entries; their conditions need not be identical. Equal values may be shown once. Read-outs that look alike come from different tables or passages of the source. Marks after values point to notes of the source that are not given here.

Assays:
[1] = test system: Met-tagged onconase; experiment: In vivo catalytic activity of MetAPs co-expressed with Met-tagged onconase in E. coli BL21(DE3); N-terminus by Edman degradation; type: cell-based
Excerpt: Residues Tyr168, Met206 and Gln233 in the putative substrate-binding site of E. coli MetAP were mutated by site-directed mutagenesis based on the crystal structure and amino acid sequence alignment of MetAPs (Ben-Bassat et al., 1987; Lowther et al., 1999; Walker et al., 1999). For the expression of secretory ribonucleases, the ribonuclease gene was cloned and expressed as described previously (Huang et al., 1998).
Most of the co-expressed target protein, e.g., onconase or RC-RNase L1, existed in insoluble cell lysate. They were denatured, renatured and purified as described previously (Liao et al., 2003). The purified ribonucleases were stored in 20 mM sodium phosphate, pH 7.0, for pyroglutamate formation at the N-terminus. Alternatively, the ribonuclease secreted into culture medium through pe1B system was concentrated and purified to electrophoretical homogeneity at a yield of 1˜5 mg per 1 liter of culture (Huang et al., 1998).

[2] = test system: RC-RNase4; experiment: In vivo Met removal, co-expression in E. coli, RC-RNase 4 substrate; type: cell-based, Rana catesbeiana; conditions: solubility −
Procedure: The MetAP was expressed alone or co-expressed with a target protein, i.e., onconase and RC-RNaseL1, in E. coli BL21 (DE3) in the presence of 0.5 mM IPTG at 37° C.
Proteins in the cell pellet or in the soluble fraction were separated by 13.3% SDS-PAGE and contact-transferred to ProBlott™ membrane (Applied Bioystems) in transfer buffer (10 mM Tris-HCl, pH 7.5, 50 mM NaCl, 2 mM EDTA, 0.5 mM 2-mercaptoethanol) overnight. The five N-terminal residues of the transferred protein were determined by Edman degradation. The percentage of Met removal was calculated by dividing the amount of proteins initiated with the penultimate residue with the amount of total proteins (including proteins initiated with the penultimate residue and unprocessed protein initiated with Met) after the first degradation cycle. In theory, this percentage should remain the same after each degradation cycle. Therefore, in order to avoid experimental variation, the same calculation was made from five consecutive degradation cycles, e.g., M, Q, N, W and L for onconase. The efficiency of Met removal is reported as the mean values of at least three cycles.

[3] = test system: synthetic oligopeptides; type: biochemical; conditions: for Specific activity (unit/mg): 4 mM oligopeptide, pH 7.5, 37° C.
Procedure: The oligopeptide substrates used in this experiment were synthesized on the 432A Synergy peptide synthesizer (Applied Biosystems, Foster, Calif., USA). The enzymatic activity of purified MetAP was assayed as described by Ben-Bassat et al., 1987. Briefly, the diluted MetAP enzyme in 10 μl was added to 90 μl of the substrate solution containing 4 mM oligopeptide, 0.1 M potassium phosphate buffer, pH 7.5 and 0.2 mM CoCl2, incubated at 37° C. for 10 min and stopped in boiling water for 2 min. After addition of 0.9 ml of color development mixture containing 0.2 mg of L-amino acid oxidase, 0.03 mg of horseradish peroxidase and 0.2 mg of o-dianisidine in 0.1 M Tris-HCl, pH 7.4, the mixtures were incubated for 10 min at 37° C., and the optical density at 440 nm was recorded. One unit of activity is defined as 1 μmol of amino acids produced per min under the assay conditions and the pure Met was used as standard. The N-terminal residues of the MetAP-treated oligopeptide were further verified by Edman degradation.

[4] = substrate MQA-Onc, in vivo in E. coli
[5] = substrate MQM-Onc, in vivo in E. coli
[6] = substrate MQN-Onc, in vivo in E. coli
[7] = substrate MQT-Onc, in vivo in E. coli
[8] = substrate MAAWA (SEQ ID NO:15)-RC4
[9] = substrate MAPWA (SEQ ID NO:16)-RC4
[10] = substrate MQAWA (SEQ ID NO:14)-RC4

B1: MetAP-*TG (protein)
chain: AISIKTPEDIEKMRVAGRLAAEVLEMIEPYVKPGVSTGELDRICNDYIVNEQHAVSACLGYHGYPKSVCISINEVVCHGIPDDAKLLKDGDIVNIDVTVIKDGFHGDTSKMFIVGKPTIMGERLCRITQESLYLALRMVKPGINLREIGAAIQKFVEAEGFSVVREYCGHGIGRGFHEEPQVLHYDSRETNVVLKPGMTFTIEPTVNAGKKEIRTMKDGWTVKTKDRSLSAGYEHTIVVTDNGCEILTLRKDDTIPAIISHDE
Catalytic activity (%): removal of N-terminal Met ([1]; substrate MMD-Onc, first Met, in vivo in E. coli): 100% | Catalytic activity (%): percent of penultimate residue removed ([1]; substrate MMD-Onc, second Met, in vivo in E. coli): 73% | Catalytic activity (%): removal of N-terminal Met ([1]; substrate MND-Onc, in vivo in E. coli): 85% | Catalytic activity (%): removal of N-terminal Met ([1]; substrate MPD-Onc, in vivo in E. coli): 93% | Catalytic activity (%): percent of penultimate residue removed [1, 4]: 100(100) % | Catalytic activity (%): removal of N-terminal Met [1, 4]: 100(100) % | Catalytic activity (%): removal of N-terminal Met ([1]; substrate MQD-Onc, in vivo in E. coli): 91% and 90% | Catalytic activity (%): removal of N-terminal Met ([1]; substrate MQD-Onc, in vivo in E. coli, listed as MetAP-M206T-Q233G): 91% | Catalytic activity (%): removal of N-terminal Met ([1]; substrate MQDWL (SEQ ID NO:10)-Onc, solubility −, same vector): 91% | Catalytic activity (%): removal of N-terminal Met ([1]; substrate MQDWL (SEQ ID NO:10)-Onc, solubility −, target in pET22b co-transformed with MetAP in pET29b): 80% | Catalytic activity (%): removal of N-terminal Met ([1]; substrate MQE-Onc, in vivo in E. coli): 71% | Catalytic activity (%): removal of N-terminal Met ([1]; substrate MQF-Onc, in vivo in E. coli): 80% | Catalytic activity (%): removal of N-terminal Met ([1]; substrate MQK-Onc, in vivo in E. coli): 78% | Catalytic activity (%): percent of penultimate residue removed [1, 5]: 59% | Catalytic activity (%): removal of N-terminal Met [1, 5]: 100% | Catalytic activity (%): percent of penultimate residue removed [1, 6]: 65% | Catalytic activity (%): removal of N-terminal Met [1, 6]: 100% | Catalytic activity (%): removal of N-terminal Met ([1]; substrate MQP-Onc, in vivo in E. coli): 25% | Catalytic activity (%): removal of N-terminal Met ([1]; substrate MQR-Onc, in vivo in E. coli): 83% | Catalytic activity (%): percent of penultimate residue removed [1, 7]: 26% | Catalytic activity (%): removal of N-terminal Met [1, 7]: 76% | Catalytic activity (%): removal of N-terminal Met ([1]; substrate MQW-Onc, in vivo in E. coli): 95% | Catalytic activity (%): removal of N-terminal Met ([1]; substrate MRA-Onc, in vivo in E. coli): 2% | Catalytic activity (%): removal of N-terminal Met ([1]; substrate MRD-Onc, in vivo in E. coli): 2% | Catalytic activity (%): removal of N-terminal Met ([1]; substrate MSD-Onc, in vivo in E. coli): 99% | Catalytic activity (%): removal of N-terminal Met ([1]; substrate MTD-Onc, in vivo in E. coli): 85% | Catalytic activity (%): removal of N-terminal Met ([1]; substrate MVD-Onc, in vivo in E. coli): 80% | Catalytic activity (%): removal of N-terminal Met ([1]; substrate MWA-Onc, in vivo in E. coli): 2% | Catalytic activity (%): removal of N-terminal Met ([1]; substrate MWD-Onc, in vivo in E. coli): 2% | Catalytic activity (%): removal of N-terminal Met ([1]; substrate MWD-Onc, in vivo in E. coli, listed as *TG): inactive | Catalytic activity (%): removal of N-terminal Met ([1]; substrate MYA-Onc, in vivo in E. coli): 8% | Catalytic activity (%): removal of N-terminal Met ([1]; substrate MYD-Onc, in vivo in E. coli): 1% | Catalytic activity (%): removal of N-terminal Met ([1]; substrate MYD-Onc, in vivo in E. coli, listed as *TG): inactive | Catalytic activity (%): percent of penultimate residue removed [2, 8]: 18% | Catalytic activity (%): removal of N-terminal Met [2, 8]: 100% | Catalytic activity (%): percent of penultimate residue removed [2, 9]: 63% | Catalytic activity (%): removal of N-terminal Met [2, 9]: 79% | Catalytic activity (%): percent of penultimate residue removed [2, 10]: 100 (100)^c % | Catalytic activity (%): removal of N-terminal Met [2, 10]: 100 (100)^c % | Catalytic activity (%): removal of N-terminal Met ([2]; substrate MQDWA (SEQ ID NO:13)-RC4): 93% | In vitro catalytic activity ([3]; oligopeptides ranging from tetra- to dodecapeptides with Ala at the penultimate site): high catalytic activity | Specific activity (unit/mg) ([3]; substrate MADY (SEQ ID NO:7)): 72 ± 10 unit/mg | Specific activity (unit/mg) ([3]; substrate MADYLT (SEQ ID NO:8)): 116 ± 4 unit/mg | Specific activity (unit/mg) ([3]; substrate MQDYLT (SEQ ID NO:9)): 0.42 ± 0.02 unit/mg | Specific activity (unit/mg) ([3]; substrate […] (SEQ ID NO:5)): 73 ± 15 unit/mg | Specific activity (unit/mg) ([3]; substrate […] (SEQ ID NO:6)): 0.59 ± 0.07 unit/mg
